From article PMC5103180 come the findings set out here.

Test [1] addresses ATS‐C fragment of PfEMP1 variant PFL0030c (VAR2CSA) (Plasmodium falciparum). Briefly: fluorescence polarisation; 500 nM 5-FAM-labelled ATS-C variants titrated with unlabelled PFE1605w PHIST domain; 20°C; 50 mM NaCl, 20 mM Na2HPO4 pH 6.5; single-site model. (In general: Polarisation of emitted light reports the rotation of a fluorescent probe.)
The target in test [2] is PFE1605w‐C (Plasmodium falciparum). Briefly: fluorescence polarisation; 0.5 μM 5-FAM-labelled PFE1605w-C titrated with unlabelled band 3 cytosolic domain (or BSA as negative control); 20°C; 50 mM NaCl, 20 mM Na2HPO4 pH 7.0; single-site model.

With “PFE1605w PHIST domain (domain or fragment)”, the Kd in test [1] turned out to be 90 µM.

In test [2], “band 3 cytosolic domain (from UniProt P02730 1-379) (domain or fragment)” returned a dissociation constant (Kd) of 1500 nM.

Usually Kd stands for the concentration at which binding is half-saturated.
